Results from US20170107294A1 (NORDLANDSSYKEHUSET HF, published 2017).

Assays:
[1] = molecular target: T1, human CD14 (human, UniProt P08571 20-345); assay: flow cytometry, human whole blood, displacement of 18D11 mIgG1 from monocytes
T1 construct: whole, on cells; also called CD14 on human monocytes
T1 sequence (looked up): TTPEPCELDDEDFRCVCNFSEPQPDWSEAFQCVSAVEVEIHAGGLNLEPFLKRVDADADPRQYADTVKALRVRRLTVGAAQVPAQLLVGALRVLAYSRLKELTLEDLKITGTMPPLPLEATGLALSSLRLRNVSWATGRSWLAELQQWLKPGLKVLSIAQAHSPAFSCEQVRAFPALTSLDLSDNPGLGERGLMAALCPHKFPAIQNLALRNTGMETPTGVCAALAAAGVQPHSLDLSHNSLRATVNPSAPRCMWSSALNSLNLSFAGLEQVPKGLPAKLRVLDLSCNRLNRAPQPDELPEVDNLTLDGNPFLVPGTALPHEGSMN
Source text: Fresh human or porcine whole blood was drawn into tubes containing the anticoagulants lepirudin (Refludan; Pharmion, Copenhagen, Denmark) or EDTA, respectively. […] Endotoxin-free Dulbecco phosphate buffered saline, PBS (Sigma-Aldrich), was used for diluting the Abs. […] Their binding was detected either by using a secondary PEconjugated anti-mouse IgG or through direct FITC fluorescence. Erythrocytes were lysed using FACS Lysing solution (BD Biosciences, Franklin Lakes, N.J.; human blood) or a solution of 0.16 M ammonium chloride, 10 mM sodium bicarbonate, 0.12 mM EDTA (Tritiplex III) and 0.04% (v/v) paraformaldehyde (porcine blood). In subsequent flow cytometry analyses, human monocyte and porcine granulocyte populations were selected based on the forward scatter-side scatter dot plot, and CD14 binding was recorded as mean or median fluorescence intensity, respectively.

[2] = molecular target: T2, human C1q (hC1q), biotinylated (human, UniProt P02745 23-245; P02746 28-253; P02747 29-245, biotinylated); assay: ELISA, coated Ab, biotinylated hC1q
T2 construct: also called complement component C1q
T2 sequence (P02745 23-245 limits assumed, chain 1 of 3): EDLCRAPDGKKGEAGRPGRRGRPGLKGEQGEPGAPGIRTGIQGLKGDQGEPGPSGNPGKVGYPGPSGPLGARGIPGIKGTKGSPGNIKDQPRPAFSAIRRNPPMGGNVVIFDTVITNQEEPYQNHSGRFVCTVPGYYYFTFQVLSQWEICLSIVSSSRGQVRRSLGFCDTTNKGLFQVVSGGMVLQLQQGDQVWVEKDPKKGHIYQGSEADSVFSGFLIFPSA
T2 sequence (P02746 28-253 limits assumed, chain 2 of 3): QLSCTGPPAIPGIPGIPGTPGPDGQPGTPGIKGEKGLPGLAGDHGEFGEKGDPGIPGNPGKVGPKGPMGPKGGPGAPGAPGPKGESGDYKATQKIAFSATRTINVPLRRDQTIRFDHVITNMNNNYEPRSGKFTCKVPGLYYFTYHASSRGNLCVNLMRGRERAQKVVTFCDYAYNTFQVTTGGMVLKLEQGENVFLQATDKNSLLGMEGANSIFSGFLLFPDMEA
T2 sequence (P02747 29-245 limits assumed, chain 3 of 3): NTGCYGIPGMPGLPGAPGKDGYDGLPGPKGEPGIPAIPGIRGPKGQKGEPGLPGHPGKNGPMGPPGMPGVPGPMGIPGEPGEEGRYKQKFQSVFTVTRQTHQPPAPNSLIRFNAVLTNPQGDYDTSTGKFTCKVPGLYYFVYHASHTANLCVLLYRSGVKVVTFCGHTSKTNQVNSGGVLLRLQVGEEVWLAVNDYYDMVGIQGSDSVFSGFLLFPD
Experimental: (§1) Ninety-six-well plates (Nunc, Roskilde, Denmark) were coated with serial dilution of the Abs (6.0-0.09 mg/ml) and incubated overnight at 4° C. followed by washing three times with PBS/Tween (pH 7.4). The wells were blocked with 4% skimmed milk (Neogen Europe, Auchincruive, U.K.) for 1 h at room temperature and then washed in PBS/Tween (pH 6.0). Purified hFcRn-GST or pFcRn-GST (1 mg/ml) were diluted in 4% skimmed milk in PBS/Tween (pH 6.0) and preincubated with an HRP-conjugated anti-GST Ab (GE Healthcare U.K., Buckinghamshire, U.K.) diluted 1:5000 and added to the wells. The plates were incubated for 1 h at room temperature and washed with PBS/Tween (pH 6.0). Bound receptor was detected by adding 100 ml of 3,39,5,59-tetramethylbenzidine substrate (Calbiochem-Novabiochem, Nottingham, U.K.). The absorbance was measured at 450 nm using a Sunrise TECAN spectrophotometer. The assay described above was also performed using PBS/Tween (pH 7.4) in all steps. The same setup was used with GST-fused versions of hFcgRI, hFcgRIIa (allotype His131), hFcgRIIb, hFcgRIIIa (allotype Val158), and hFcgRIIIb (1 mg/ml each). In addition, a biotinylated human C1q (hC1 q; 4 mg/ml) preparation was incubated with the Abs and detected using ALP-conjugated streptavidin (GE Healthcare). Absorbance was measured at 405 nm.

[3] = molecular target: T3, human FcgRI ectodomains fused to GST (human; Schistosoma japonicum, UniProt P12314 16-292); assay: ELISA, coated Ab, GST-fused receptor
T3 construct: extracellular domain; also called hFcgRI; not shown: Schistosoma japonicum GST
Experimental: as §1

[4] = molecular target: T4, human FcgRIIb ectodomains fused to GST (human; Schistosoma japonicum, UniProt P31994 43-217); assay: ELISA, coated Ab, GST-fused receptor
T4 construct: extracellular domain; also called hFcgRIIb; not shown: Schistosoma japonicum GST
T4 sequence (looked up): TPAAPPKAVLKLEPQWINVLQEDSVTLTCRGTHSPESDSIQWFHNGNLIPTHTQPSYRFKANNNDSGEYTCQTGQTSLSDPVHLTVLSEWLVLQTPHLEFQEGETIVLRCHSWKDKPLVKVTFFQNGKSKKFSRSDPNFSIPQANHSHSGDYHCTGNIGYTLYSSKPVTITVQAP
Experimental: as §1

[5] = molecular target: T5, human FcgRIIIa (allotype Val158) ectodomains fused to GST (human; Schistosoma japonicum, UniProt P08637 17-208); assay: ELISA, coated Ab, GST-fused receptor
T5 construct: extracellular domain; also called hFcgRIIIa; not shown: Schistosoma japonicum GST
Experimental: as §1

[6] = molecular target: T6, human FcgRIIIb ectodomains fused to GST (human; Schistosoma japonicum, UniProt O75015 17-200); assay: ELISA, coated Ab, GST-fused receptor
T6 construct: extracellular domain; also called hFcgRIIIb; not shown: Schistosoma japonicum GST
Experimental: as §1

B1: 18D11 IgG1 F(ab')2 (Diatec) (other)
VH: EVQLVESGGGLMQPKGSLKLSCAASGFTFKTYALNWVRQAPGTGLEWVARIRSKSNNYTTYYADSVKDRFTISRDDSQNMLYLQMNNLKTEDTAMYYCVRPQSGTSFAYWGQGTLVTVSAA
VL: NIVLTQSPASLAVSLGQRATISCRASESVDSYGNSFMHWYQQKPGQPPKLLIYLASNLESGVPARFSGSGSRTDFTLTIDPVEADDVATYYCQQNNGDPYTFGGGTKLEIIR
notes: F(ab')2 fragment of the mouse IgG1 clone 18D11, bought; also called 18D11 F(ab)92; F(ab9)2 18D11
Q: Does B1 bind [1]?
A: Result: binds

B2: recombinant Mil2 (rMil2), recombinant anti-porcine CD14 IgG2/4 Ab (antibody)
heavy: QVRLQQPGAELVRPGASVKLSCKASGYTFTTYWMNWVKQRPEDGLEWIGRIDPYDSETHYNQNFKDKAILTVDKSSSTAYMQLSSLTYEDSAVYYCTRKEGRQWGAYFDYWGQGTTLTVSSASTKGPSVFPLAPCSRSTSESTAALGCLVKDYFPEPVTVSWNSGALTSGVHTFPAVLQSSGLYSLSSVVTVPSSNFGTQTYTCNVDHKPSNTKVDKTVERKCCVECPPCPAPPVAGPSVFLFPPKPKDTLMISRTPEVTCVVVDVSQEDPEVQFNWYVDGVEVHNAKTKPREEQFNSTYRVVSVLTVLHQDWLNGKEYKCKVSNKGLPSSIEKTISKAKGQPREPQVYTLPPSQEEMTKNQVSLTCLVKGFYPSDIAVEWESNGQPENNYKTTPPVLDSDGSFFLYSRLTVDKSRWQEGNVFSCSVMHEALHNHYTQKSLSLSLGK
light: DIVMTQSQKFMSTSVGDRVSVTCKASQYVGTNVAWYQQKPGQSPKALIQSASYRCSGVPDRFTGSGSGTDFTLTISNVQSEDLADYFCQQYNTYVTFGGGTKLELKRTVAAPSVFIFPPSDEQLKSGTASVVCLLNNFYPREAKVQWKVDNALQSGNSQESVTEQDSKDSTYSLSSTLTLSKADYEKHKVYACEVTHQGLSSPVTKSFNRGEC
notes: Mouse/human chimera with human IgG2/4 hybrid heavy constant region and human kappa
Q: What does the source list for B2?
A: binding result [2]: no binding; binding result [3]: no binding; binding result [4]: no binding; binding result [5]: no binding; binding result [6]: no binding

B3: recombinant 18D11 (r18D11), recombinant anti-human CD14 IgG2/4 Ab (antibody)
heavy: EVQLVESGGGLMQPKGSLKLSCAASGFTFKTYALNWVRQAPGTGLEWVARIRSKSNNYTTYYADSVKDRFTISRDDSQNMLYLQMNNLKTEDTAMYYCVRPQSGTSFAYWGQGTLVTVSAASTKGPSVFPLAPCSRSTSESTAALGCLVKDYFPEPVTVSWNSGALTSGVHTFPAVLQSSGLYSLSSVVTVPSSNFGTQTYTCNVDHKPSNTKVDKTVERKCCVECPPCPAPPVAGPSVFLFPPKPKDTLMISRTPEVTCVVVDVSQEDPEVQFNWYVDGVEVHNAKTKPREEQFNSTYRVVSVLTVLHQDWLNGKEYKCKVSNKGLPSSIEKTISKAKGQPREPQVYTLPPSQEEMTKNQVSLTCLVKGFYPSDIAVEWESNGQPENNYKTTPPVLDSDGSFFLYSRLTVDKSRWQEGNVFSCSVMHEALHNHYTQKSLSLSLGK
light: NIVLTQSPASLAVSLGQRATISCRASESVDSYGNSFMHWYQQKPGQPPKLLIYLASNLESGVPARFSGSGSRTDFTLTIDPVEADDVATYYCQQNNGDPYTFGGGTKLEIIRTVAAPSVFIFPPSDEQLKSGTASVVCLLNNFYPREAKVQWKVDNALQSGNSQESVTEQDSKDSTYSLSSTLTLSKADYEKHKVYACEVTHQGLSSPVTKSFNRGEC
notes: Mouse/human chimera: murine variable regions, human IgG2/4 hybrid heavy constant region (CH1 and hinge from IgG2, CH2 and CH3 from IgG4), human kappa; Made in HEK293-EBNA cells; also called recombinant anti-human CD14 Ab
Q: Does B3 bind [2]?
A: Result: no binding

Q: Does B3 bind [3]?
A: Result: no binding

Q: Does B3 bind [4]?
A: Result: no binding

Q: Does B3 bind [5]?
A: Result: no binding

Q: Does B3 bind [6]?
A: Result: no binding
